Literature values in paper PMC3955120 (Journal of chromatography. B, Analytical technologies in …, 2013).
Where no end group is shown, it is not given here.

Conditions: humans, i.v. infusion of kisspeptin-54, RIA, monoexponential decline

## kisspeptin-54 (GTSLSPPPESSGSPQQPGLSAPHSRQIPAPQGAVLVQREKDLPNYNWNSFGLRF-NH2; ends and bridges not checked; UniProt Q15726 68-121, looked up)
  half-life of post steady-state plasma kisspeptin-IR: 27.6 min
